Results on 8 molecules are retold here after article PMC7261175, “A splice site-sensing conformational switch in U2AF2 is modulated by U2AF1 and its recurrent myelodysplasia-associated mutation” (Nucleic Acids Research, 2019).

The target in series [1] is T1, His6SumoMBP-U2AF1 S34F;U2AF2 Cy3/Cy5 (human;human, UniProt Q01081;P26368-2 1-188;85-342, S34F;C67S|A181C;C305A;Q324C). The series can be described thus: smFRET; RNA tethered; same as IgM(-3C); Anisotropy: 150 mM NaCl, 25 mM HEPES pH 6.8, 0.5 mM TCEP, 3% glycerol, 20 uM ZnCl2, 0.2 U/ul SUPERase-In; smFRET: 25 mM HEPES pH 7.0, 150 mM KCl, 0.01% octaethylene glycol monododecyl ether, 0.2 mM TCEP, 6 mM BME, 1.5 mM Trolox, oxygen scavenger, room temperature, excess U2AF1 (1000 nM) with heterodimer. To be noted: protein: recombinant;recombinant; tags: N-terminal His6-SUMO-MBP with AAA linker; C-terminal extra Ala;GST cleaved; Cy3/Cy5 on C181 and C324; copies: 1;1; label: biotin on annealed DNA; stem-loop (predicted).
T1 sequence (P26368 85-342 A181C/C305A/Q324C, one chain of several): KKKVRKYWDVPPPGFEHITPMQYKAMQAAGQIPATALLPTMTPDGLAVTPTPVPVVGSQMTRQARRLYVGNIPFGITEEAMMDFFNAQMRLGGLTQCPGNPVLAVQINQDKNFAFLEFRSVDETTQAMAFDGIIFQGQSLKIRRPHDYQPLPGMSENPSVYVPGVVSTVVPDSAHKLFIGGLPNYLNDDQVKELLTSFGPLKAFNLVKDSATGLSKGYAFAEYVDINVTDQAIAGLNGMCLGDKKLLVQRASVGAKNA

The target of series [2] is T2, His6SumoMBP-U2AF1;U2AF2 Cy3/Cy5 (human;human, UniProt Q01081;P26368-2 1-188;85-342, C67S|A181C;C305A;Q324C). The series can be described thus: smFRET; RNA tethered; more open than IgM(-3C); Anisotropy: 150 mM NaCl, 25 mM HEPES pH 6.8, 0.5 mM TCEP, 3% glycerol, 20 uM ZnCl2, 0.2 U/ul SUPERase-In; smFRET: 25 mM HEPES pH 7.0, 150 mM KCl, 0.01% octaethylene glycol monododecyl ether, 0.2 mM TCEP, 6 mM BME, 1.5 mM Trolox, oxygen scavenger, room temperature, excess U2AF1 (1000 nM) with heterodimer. Conditions: protein: recombinant;recombinant; tags: N-terminal His6-SUMO-MBP with AAA linker; C-terminal extra Ala;GST cleaved; Cy3/Cy5 on C181 and C324; copies: 1;1; label: biotin on annealed DNA; stem-loop (predicted).
T2 sequence (P26368 85-342 A181C/C305A/Q324C, one chain of several): as above

The target in series [3] is T2, His6SumoMBP-U2AF1;U2AF2 Cy3/Cy5. The series can be described thus: smFRET titration; protein tethered; from 0.4 and 0.6 FRET peak areas; Anisotropy: 150 mM NaCl, 25 mM HEPES pH 6.8, 0.5 mM TCEP, 3% glycerol, 20 uM ZnCl2, 0.2 U/ul SUPERase-In; smFRET: 25 mM HEPES pH 7.0, 150 mM KCl, 0.01% octaethylene glycol monododecyl ether, 0.2 mM TCEP, 6 mM BME, 1.5 mM Trolox, oxygen scavenger, room temperature, excess U2AF1 (1000 nM) with heterodimer. Conditions: protein: recombinant;recombinant; tags: N-terminal His6-SUMO-MBP with AAA linker; C-terminal extra Ala;GST cleaved; Cy3/Cy5 on C181 and C324; copies: 1;1.

The target of series [4] is T1, His6SumoMBP-U2AF1 S34F;U2AF2 Cy3/Cy5. The series can be described thus: smFRET; RNA tethered; similar to WT; Anisotropy: 150 mM NaCl, 25 mM HEPES pH 6.8, 0.5 mM TCEP, 3% glycerol, 20 uM ZnCl2, 0.2 U/ul SUPERase-In; smFRET: 25 mM HEPES pH 7.0, 150 mM KCl, 0.01% octaethylene glycol monododecyl ether, 0.2 mM TCEP, 6 mM BME, 1.5 mM Trolox, oxygen scavenger, room temperature, excess U2AF1 (1000 nM) with heterodimer. Conditions: protein: recombinant;recombinant, tags: N-terminal His6-SUMO-MBP with AAA linker, C-terminal extra Ala;GST cleaved, Cy3/Cy5 on C181 and C324, copies: 1;1, label: biotin on annealed DNA.

The target in series [5] is T2, His6SumoMBP-U2AF1;U2AF2 Cy3/Cy5. The series can be described thus: smFRET; RNA tethered; open and closed; Anisotropy: 150 mM NaCl, 25 mM HEPES pH 6.8, 0.5 mM TCEP, 3% glycerol, 20 uM ZnCl2, 0.2 U/ul SUPERase-In; smFRET: 25 mM HEPES pH 7.0, 150 mM KCl, 0.01% octaethylene glycol monododecyl ether, 0.2 mM TCEP, 6 mM BME, 1.5 mM Trolox, oxygen scavenger, room temperature, excess U2AF1 (1000 nM) with heterodimer. Conditions: protein: recombinant;recombinant; tags: N-terminal His6-SUMO-MBP with AAA linker; C-terminal extra Ala;GST cleaved; Cy3/Cy5 on C181 and C324; copies: 1;1; label: biotin on annealed DNA.

The target in series [6] is T3, U2AF2 Cy3/Cy5 isolated subunit (human, UniProt P26368-2 113-342, A181C;C305A;Q324C). Described as above. To be noted: protein: recombinant; tags: His6 and T7 tags; Cy3/Cy5; label: biotin on annealed DNA.
T3 sequence (P26368 113-342 A181C/C305A/Q324C): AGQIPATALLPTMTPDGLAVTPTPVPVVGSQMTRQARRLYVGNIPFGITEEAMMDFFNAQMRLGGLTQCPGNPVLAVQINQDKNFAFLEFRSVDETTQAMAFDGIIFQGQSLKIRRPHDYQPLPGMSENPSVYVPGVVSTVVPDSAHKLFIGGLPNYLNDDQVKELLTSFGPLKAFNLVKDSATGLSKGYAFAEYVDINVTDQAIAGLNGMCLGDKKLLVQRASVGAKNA
Series [7] deals with T3, U2AF2 Cy3/Cy5 isolated subunit. The series can be described thus: smFRET; RNA tethered; Anisotropy: 150 mM NaCl, 25 mM HEPES pH 6.8, 0.5 mM TCEP, 3% glycerol, 20 uM ZnCl2, 0.2 U/ul SUPERase-In; smFRET: 25 mM HEPES pH 7.0, 150 mM KCl, 0.01% octaethylene glycol monododecyl ether, 0.2 mM TCEP, 6 mM BME, 1.5 mM Trolox, oxygen scavenger, room temperature, excess U2AF1 (1000 nM) with heterodimer. To be noted: protein: recombinant, tags: His6 and T7 tags, label: biotin on annealed DNA, stem-loop.

Series [8] has as its target T2, His6SumoMBP-U2AF1;U2AF2 Cy3/Cy5. The series can be described thus: smFRET; RNA tethered; ~70% closed; Anisotropy: 150 mM NaCl, 25 mM HEPES pH 6.8, 0.5 mM TCEP, 3% glycerol, 20 uM ZnCl2, 0.2 U/ul SUPERase-In; smFRET: 25 mM HEPES pH 7.0, 150 mM KCl, 0.01% octaethylene glycol monododecyl ether, 0.2 mM TCEP, 6 mM BME, 1.5 mM Trolox, oxygen scavenger, room temperature, excess U2AF1 (1000 nM) with heterodimer. Conditions: protein: recombinant;recombinant; tags: N-terminal His6-SUMO-MBP with AAA linker; C-terminal extra Ala;GST cleaved; Cy3/Cy5 on C181 and C324; copies: 1;1; label: biotin on annealed DNA; stem-loop.

For series [9], the target named is T4, U2AF2^Cy3/Cy5 (residues 85-342, C305A, A181C, Q324C, labelled with Cy3/Cy5) (human, UniProt P26368-2 85-342, C305A | A181C | Q324C, Cy3- or Cy5-maleimide on the cysteines at 181 and 324 (a mixture of Cy3/Cy5 at each site)).
T4 construct: pGEX6p-1 vector, GST removed with PreScission protease; also called U2AF^65; labeled U2AF2; not shown: GST, N-terminal, cleaved
T4 sequence (P26368 85-342 A181C/C305A/Q324C): as the sequence (P26368 85-342 A181C/C305A/Q324C, one chain of several) above
The series can be described thus: SEC; labelled U2AF2 mixed with stoichiometric His6SumoMBP-U2AF1, salt lowered to 150 mM NaCl, 25 mM HEPES pH 7.0, 3% glycerol, 0.2 mM TCEP; complex purified on Superdex-200. To be noted: both partners purified. For orientation: In gel filtration, larger molecules generally elute earlier.

In series [10] the target is T5, D215R/G319R U2AF2^Cy3/Cy5 (residues 85-342, C305A, A181C, Q324C, labelled with Cy3/Cy5) (human, UniProt P26368-2 85-342, D215R | G319R | C305A | A181C | Q324C, Cy3- or Cy5-maleimide on the cysteines at 181 and 324 (a mixture of Cy3/Cy5 at each site)).
T5 construct: The methods print the mutant once as D215R-D319R; results, legends and discussion print D215R/G319R; also called D215R/G319R mutant; D215R-D319R-mutant U2AF2; not shown: GST, N-terminal, cleaved
T5 sequence (P26368 85-342 A181C/D215R/C305A/G319R/Q324C): as the sequence (P26368 85-342 A181C/C305A/Q324C, one chain of several) above, with D131R, G235R counted along it
The series can be described thus: single-molecule imaging (smFRET, TIRF) of labelled U2AF2 tethered to the slide through His-tagged U2AF1; His6SumoMBP-U2AF1 with bound U2AF2^Cy3/Cy5 (5 nM heterodimer) held on biotinyl-NTA(Ni2+)/neutravidin slide; 1000 nM excess U2AF1 in the buffer; no RNA; room temperature; 25 mM HEPES pH 7.0, 150 mM KCl. To be noted: both partners purified.

Series [11] deals with T4, U2AF2^Cy3/Cy5 (residues 85-342, C305A, …). The series is described as above. Conditions: both partners purified.
Series [12] has as its target T1, His6SumoMBP-U2AF1 S34F;U2AF2 Cy3/Cy5. The series can be described thus: smFRET; RNA tethered; 33% closed; Anisotropy: 150 mM NaCl, 25 mM HEPES pH 6.8, 0.5 mM TCEP, 3% glycerol, 20 uM ZnCl2, 0.2 U/ul SUPERase-In; smFRET: 25 mM HEPES pH 7.0, 150 mM KCl, 0.01% octaethylene glycol monododecyl ether, 0.2 mM TCEP, 6 mM BME, 1.5 mM Trolox, oxygen scavenger, room temperature, excess U2AF1 (1000 nM) with heterodimer. To be noted: protein: recombinant;recombinant; tags: N-terminal His6-SUMO-MBP with AAA linker; C-terminal extra Ala;GST cleaved; Cy3/Cy5 on C181 and C324; copies: 1;1; label: biotin on annealed DNA.

In series [13] the target is T2, His6SumoMBP-U2AF1;U2AF2 Cy3/Cy5. The series can be described thus: smFRET; RNA tethered; 66% closed; Anisotropy: 150 mM NaCl, 25 mM HEPES pH 6.8, 0.5 mM TCEP, 3% glycerol, 20 uM ZnCl2, 0.2 U/ul SUPERase-In; smFRET: 25 mM HEPES pH 7.0, 150 mM KCl, 0.01% octaethylene glycol monododecyl ether, 0.2 mM TCEP, 6 mM BME, 1.5 mM Trolox, oxygen scavenger, room temperature, excess U2AF1 (1000 nM) with heterodimer. Conditions: protein: recombinant;recombinant; tags: N-terminal His6-SUMO-MBP with AAA linker; C-terminal extra Ala;GST cleaved; Cy3/Cy5 on C181 and C324; copies: 1;1; label: biotin on annealed DNA.

A word on the Kd: it is a measure of binding affinity in units of concentration.

On to UGUCUCUGUCACCUGUAGGUGAAAUG (structured_RNA, 3' PEG18-DNA conjugate) [IgM(-3U)], for which the binding result in series [1] and in [2] was “binds” in each case.
With UCCCUUUUUUUUCCACAGCUCGCGGU (ssRNA) [AdML], the Kd in [3] is ~600 nM.
Consider UACUAAAUUAAUUUCUAGAAAAGAGU (ssRNA, 3' PEG18-DNA conjugate) [DEK (-3U)], for which the binding result in series [4], in series [5] and in [6] was “binds” each time.
As for UGUCUCUGUCACCUGCAGGUGAAAUG (structured_RNA, 3' PEG18-DNA conjugate) [IgM (-3C)], the binding result in series [7], in [8] and in series [4] (stem-loop) was “binds” each time.
CCAUUUAUUUUGACUUAGAUUAUAUU (ssRNA, 3' PEG18-DNA conjugate) [CASP8]: the binding result in series [4] and in series [5] was “binds” in each case.

B1: His6SumoMBP-U2AF1 (residues 1-188, C67S, C-terminal alanine) (domain or fragment, human)
chain: MAEYLASIFGTEKDKVNCSFYFKIGACRHGDRCSRLHNKPTFSQTIALLNIYRNPQNSSQSADGLRSAVSDVEMQEHYDEFFEEVFTEMEEKYGEVEEMNVCDNLGDHLVGNVYVKFRREEDAEKAVIDLNNRWFNGQPIHAELSPVTDFREACCRQYEMGECTRGGFCNFMHLKPISRELRRELYGRA
notes: C-terminal alanine added to enhance soluble protein expression; A three-alanine linker is part of the N-terminal tag; Modified pCDF-1b vector; also called U2AF^35; MBP-fused U2AF1; source: E. coli BL21(DE3), purified (HisTrap, Superdex-75 SEC); not shown: His6, N-terminal, kept; Sumo, N-terminal, kept; MBP, N-terminal, kept
Turning to B1, the binding result in series [9] and in [10] was “binds” each time.

B2: S34F-mutant His6SumoMBP-U2AF1 (residues 1-188, C67S, C-terminal alanine) (domain or fragment, human)
chain: MAEYLASIFGTEKDKVNCSFYFKIGACRHGDRCFRLHNKPTFSQTIALLNIYRNPQNSSQSADGLRSAVSDVEMQEHYDEFFEEVFTEMEEKYGEVEEMNVCDNLGDHLVGNVYVKFRREEDAEKAVIDLNNRWFNGQPIHAELSPVTDFREACCRQYEMGECTRGGFCNFMHLKPISRELRRELYGRA
notes: C-terminal alanine added to enhance soluble protein expression; S34F was introduced into the corresponding wild-type U2AF1 construct; three-alanine linker in the N-terminal tag as for m1; also called S34F U2AF1; S34F mutant U2AF1; source: E. coli BL21(DE3), purified by identical methods as the wild-type parent (HisTrap, Superdex-75 SEC); not shown: His6, N-terminal, kept; Sumo, N-terminal, …
B2: the binding result in [11] is recorded as “binds”.
For ACUUUUAACUCUCGAUAGGAACUAAU (ssRNA, 3' PEG18-DNA conjugate) [FMR1], the binding result in [12] and in series [13] was “binds” throughout.
